Source: patent US20220227832

Biological target: Muc16 CAR 53B6 with a V5 tag attached to its N-terminus via matriptase cleavable linker TPS6 45aa
Sequence (chain, as listed by the source): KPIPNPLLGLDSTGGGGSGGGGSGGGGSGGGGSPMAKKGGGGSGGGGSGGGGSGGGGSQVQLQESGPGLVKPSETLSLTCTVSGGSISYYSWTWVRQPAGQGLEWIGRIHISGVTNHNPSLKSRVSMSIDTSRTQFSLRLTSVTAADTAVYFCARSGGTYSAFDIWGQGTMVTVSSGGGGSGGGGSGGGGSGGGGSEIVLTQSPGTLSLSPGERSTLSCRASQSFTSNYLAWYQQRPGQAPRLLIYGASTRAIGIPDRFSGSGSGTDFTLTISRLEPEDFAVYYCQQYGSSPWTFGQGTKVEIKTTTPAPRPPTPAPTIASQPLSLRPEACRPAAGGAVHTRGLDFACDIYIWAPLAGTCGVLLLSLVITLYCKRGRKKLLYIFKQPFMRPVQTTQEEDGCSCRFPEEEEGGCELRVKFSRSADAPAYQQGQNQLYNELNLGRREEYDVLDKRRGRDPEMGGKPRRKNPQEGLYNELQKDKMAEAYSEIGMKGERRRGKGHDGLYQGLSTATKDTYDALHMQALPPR

B1: endogenous matriptase on OVCAR3, MDA-MB-231 and NCI-H292 cells (protein)
chain: MGSDRARKGGGGPKDFGAGLKYNSRHEKVNGLEEGVEFLPVNNVKKVEKHGPGRWVVLAAVLIGLLLVLLGIGFLVWHLQYRDVRVQKVFNGYMRITNENFVDAYENSNSTEFVSLASKVKDALKLLYSGVPFLGPYHKESAVTAFSEGSVIAYYWSEFSIPQHLVEEAERVMAEERVVMLPPRARSLKSFVVTSVVAFPTDSKTVQRTQDNSCSFGLHARGVELMRFTTPGFPDSPYPAHARCQWALRGDADSVLSLTFRSFDLASCDERGSDLVTVYNTLSPMEPHALVQLCGTYPPSYNLTFHSSQNVLLITLITNTERRHPGFEATFFQLPRMSSCGGRLRKAQGTFNSPYYPGHYPPNIDCTWNIEVPNNQHVKVRFKFFYLLEPGVPAGTCPKDYVEINGEKYCGERSQFVVTSNSNKITVRFHSDQSYTDTGFLAEYLSYDSSDPCPGQFTCRTGRCIRKELRCDGWADCTDHSDELNCSCDAGHQFTCKNKFCKPLFWVCDSVNDCGDNSDEQGCSCPAQTFRCSNGKCLSKSQQCNGKDDCGDGSDEASCPKVNVVTCTKHTYRCLNGLCLSKGNPECDGKEDCSDGSDEKDCDCGLRSFTRQARVVGGTDADEGEWPWQVSLHALGQGHICGASLISPNWLVSAAHCYIDDRGFRYSDPTQWTAFLGLHDQSQRSAPGVQERRLKRIISHPFFNDFTFDYDIALLELEKPAEYSSMVRPICLPDASHVFPAGKAIWVTGWGHTQYGGTGALILQKGEIRVINQTTCENLLPQQITPRMMCVGFLSGGVDSCQGDSGGPLSSVEADGRIFQAGVVSWGDGCAQRNKPGVYTRLPLFRDWIKENTGV
removal of V5 tag (linker cleavage, flow cytometry): the endogenous matriptase showed limited activity
